Measured values: patent US20220396632A1 (VERSEAU THERAPEUTICS, published 2022)

T1: PSGL-1(42-62) N-terminal peptide, sulfation state not told at the place (human, not fully specified; sulfation of Y46, Y48, Y51 not stated for these table columns)
T1 peptide: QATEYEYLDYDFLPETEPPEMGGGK

T2: Recombinant human PSGL-1(ECD)-hFc1 (R&D Systems, Cat. 3345-PS) (human, UniProt Q14242 42-305)
T2 construct: Bought; Gln42-Val295 counted on AAC50061; also called PSGL-1-Fc; PSGL-1-hFc1 chimera; not shown: human IgG1 Fc, Pro100-Lys330
T2 sequence: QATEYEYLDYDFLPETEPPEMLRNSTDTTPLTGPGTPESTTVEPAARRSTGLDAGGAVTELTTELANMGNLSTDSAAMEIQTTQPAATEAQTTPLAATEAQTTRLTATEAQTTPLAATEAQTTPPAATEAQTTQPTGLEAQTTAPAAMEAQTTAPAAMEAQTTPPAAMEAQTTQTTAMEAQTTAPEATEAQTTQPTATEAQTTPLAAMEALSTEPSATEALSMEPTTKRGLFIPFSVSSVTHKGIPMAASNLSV

T3: Biotin sY48 PSGL-1(42-62) peptide (human, sulfotyrosine at Y48; C-terminal Lys-biotin)
T3 construct: also called sY48S
T3 peptide: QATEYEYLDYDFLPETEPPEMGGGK

T4: Biotin sY51 PSGL-1(42-62) peptide (human, sulfotyrosine at Y51; C-terminal Lys-biotin)
T4 construct: also called Y51(SO3) PSGL-1(42-62)
T4 peptide: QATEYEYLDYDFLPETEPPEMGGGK

T5: Biotin Y46,48,51(SO3) PSGL-1(42-62) peptide (human, sulfotyrosine at Y46, Y48 and Y51; C-terminal Lys-biotin)
T5 construct: also called fully sulfated N-terminal PSGL-1 peptide
T5 peptide: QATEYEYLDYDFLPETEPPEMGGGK

T6: Biotin sY46 PSGL-1(42-62) peptide (human, sulfotyrosine at Y46; C-terminal Lys-biotin)
T6 peptide: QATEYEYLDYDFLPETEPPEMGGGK


What was measured:
[1] = biological target: T1, PSGL-1(42-62) N-terminal peptide, …; experiment: binding to PSGL-1 42-62
[2] = biological target: PSGL-1(ECD)-hFc1 I121A protein (Sino Biological) (human); experiment: ELISA; against WT PSGL-1(ECD)-hFc1
Procedure: (§1) A typical ELISA experiment involved binding of a single concentration or serially diluted mAb in assay buffer (3% BSA in PBS containing 0.05% Tween®20, pH 7.4) onto BSA blocked high binding microtiter plate half-wells (Corning Cat. #3690), which contained PSGL-1 protein or streptavidin-immobilized biotin peptide. After incubation for 45 min. at 37° C., the plate was washed 3 times with wash buffer (PBS containing 0.05% Tween®20, pH 7.4), and an appropriate HRP-conjugated secondary antibody added (25 ul/well) (HRP goat anti-mouse or anti-human IgG). After 45 min. incubation at 37° C., the plate was washed and antibody bound to plate-immobilized target was determined at A450 nm using HRP substrate (3,3′5,5′-tetramethylbenzidine (TMB)). For each antibody, duplicate values were averaged and assay background subtracted.

[3] = biological target: PSGL-1(ECD)-hFc1 S116A protein (Sino Biological) (human); experiment: ELISA; against WT PSGL-1(ECD)-hFc1
Procedure: as §1

[4] = biological target: PSGL-1(ECD)-hFc1 M119A protein (Sino Biological) (human); experiment: ELISA; against WT PSGL-1(ECD)-hFc1
Procedure: as §1

[5] = biological target: T2, Recombinant human PSGL-1(ECD)-hFc1 (R&D …); experiment: Octet tandem; competitor 19N05
Procedure: (§2) Antibody binning was performed by ForteBio Octet® using a tandem assay format, with anti-human IgG biosensor-immobilized PSGL-1(ECD)-hFc1 protein, binding of competitor mAb followed by analyte antibody. As competition controls, the same antibody was competed against itself, and mAb competition was performed bidirectionally.
(§3) Antibody binning by tandem octet was performed by immobilizing 10 ug/mL PSGL-1(ECD)-hFc1 (R&D Systems, Cat. #3345-PS) in PBS, pH 7.4, onto anti-human IgG capture biosensors (ForteBio, Cat. #18-5060), binding of 100 nM competitor antibody for 300 sec., followed by binding of 100 nM of analyte mAb for 300 s in kinetic buffer (0.1% BSA in PBS containing 0.02% tween 20 and 0.05% sodium azide, pH 7.4). Synagis (Johnson et al. (1997) J. Infect. Dis. 176:1215-1224) served as a negative control mAb for competition. An Fc quench step (0.25 mg/mL human IgG Fcl; BioXcell, Cat. #BE0096, in kinetic buffer) was included when human mAbs were tested to prevent high background from the antibodies binding to the anti-human IgG biosensor. Biosensor regeneration buffer consisted of 10 mM glycine, pH 2.0.

[6] = biological target: T2, Recombinant human PSGL-1(ECD)-hFc1 (R&D …); experiment: Octet tandem; competitor 19J23
Procedure: as §2, §3

[7] = biological target: T3, Biotin sY48 PSGL-1(42-62) peptide; experiment: capture ELISA; against 3 x sY peptide
Procedure: (§4) Two ELISA methods were performed. One procedure detected mAb binding to its plate-immobilized target and the other measured the immobilized antibody's ability to capture biotinylated PSGL-1₄₂₋₆₂. […] The plate was incubated for 45 min at 37° C. Plates were washed 3 times with wash buffer (PBS containing 0.05% tween 20, pH 7.4) and a single concentration (2 to 500 nM) or serially diluted (0.002-100 nM) anti-PSGL-1 mAb was added (25 ul/well) in assay buffer into appropriate wells. The plate was incubated for 45 min at 37° C., washed 3 times, and an appropriate HRP-conjugated secondary antibody added (25 ul/well) (HRP goat anti-mouse or anti-human IgG). After 45 min incubation at 37° C., the plate was washed, and antibody bound to plate-immobilized target was determined at A450 nm using HRP substrate (3,3′,5,5′-etramethylbenzidine (TMB)). For each antibody, duplicate values were averaged and assay background was subtracted. Except for the following, ELISAs involving plate-immobilized mAb capturing of biotinylated PSGL-1₄₂₋₆₂ peptides was performed in the same manner as described above: 3 ug/mL/25 ul per well of mAb was coated directly onto microtiter plate wells; biotinylated unmodified or sulfotyrosine PSGL-1₄₂₋₆₂ was serially diluted (3 nM-3 uM) into appropriate wells, and antibody-bound peptide was detected using HRP-streptavidin (Jackson Immunoresearch, Cat. #016-030-084).

[8] = biological target: T4, Biotin sY51 PSGL-1(42-62) peptide; experiment: capture ELISA; against 3 x sY peptide
Procedure: as §4

[9] = biological target: T3, Biotin sY48 PSGL-1(42-62) peptide; experiment: ELISA, plate-bound mAb captures biotin peptide
Procedure: as §4

[10] = biological target: T5, Biotin Y46,48,51(SO3) PSGL-1(42-62) …; experiment: ELISA, plate-bound mAb captures biotin peptide
Procedure: as §4

[11] = biological target: T4, Biotin sY51 PSGL-1(42-62) peptide; experiment: ELISA, plate-bound mAb captures biotin peptide
Procedure: as §4

[12] = biological target: T6, Biotin sY46 PSGL-1(42-62) peptide; experiment: ELISA, plate-bound mAb captures biotin peptide
Procedure: as §4

Binder	binding result [1]	EC50/EC50WTprot [2]	EC50/EC50WTprot [3]	EC50/EC50WTprot [4]	% binding of analyte mAb [5]	% binding of analyte mAb [6]	EC50/EC50 3x(SO3)Y [7]	EC50/EC50 3x(SO3)Y [8]	EC50 [9]	EC50 [10]	EC50 [11]	EC50 [12]	fold stronger binding than to the unmodified peptide [11]	fold stronger binding than to the unmodified peptide [12]
18K07 (antibody, V domains shown, From mouse immunisation; only variable domains given) VH: QIQLVQSGPELKKPGETVKISCEASGYTFTTYGMNWVKQAPGKGLKWMGWINTYSGVPTYADDFQGRFAFSVETSATTAYLQINNLKNEDAATYFCARSDDTYYGFAYWGQGTLVTVSA VL: not shown	no binding	0.89 fold	1.02 fold	0.81 fold	0%	92.9%	–	–	–	–	–	–	–	–
10F01 (antibody, IgG4, V domains shown) VH: EVQLVQSGGGLVQPGGSLRLSCAASGFTFSSYAMSWVRQAPGKGLEWVSALRGGDGGTYHADSVKGRFTISGDSSKNTLYLQMNSLRAEDTAVYYCARRMVGAAYAFDIWGQGTMVTVSS VL: LPVLTQPHSVSESPGKTVTISCTRSSGSIADNFVQWYRQRPGSAPTTVIYEGDQRPSGVPGRFSGSIDSSSNSASLTISGLQTDDEADYYCQSFDSYNRRTHVVFGGGTKLTVL	–	–	–	–	–	–	~2000 fold	~36 fold	~3000 nM	~1 nM	36.2 nM	~2000 nM	–	–
20I15 (antibody, V domains shown, From mouse immunisation; only variable domains given; also called 20115) VH: EVKLVESGGGLVQPGGSLSLSCAASGFTFTDYYMSWVRQPPGKALEWLGFIRNKANGYTTEYSASVKGRFTISRDNSQSILYLQMNALRAEDSATYYCARTYLRRGYFDVWGTGTTVTVSS VL: DIVLTQSPASLAVSLGQRATISCRASKSVSTSGYSYMHWFQQKPGQPPKLLIYLASNLESGVPARFSGSGSGTDFTLNIHPVEEEDAATYYCQHSRELPLTFGAGTKLELK	–	–	–	–	–	–	~10 fold	~10 fold	~3000 nM	292 nM	~3000 nM	~3000 nM	–	–
03D07 (antibody, IgG4, V domains shown) VH: EVKLLESGGGLVQPGGSLRLSCAASGFTFSSYALSWVRQAPGKGLEWVSAISGSGGNTYYADSVKGRFTISRDNSKNTLYLQMNSLRAEDTAVYYCAKVVGATNYWGQGTLVTVSS VL: DIVMTQTPLSLPVTLGQPASISCRSSQSLVYSDGHTYLSWFHQRPGQSPRRLIYKVSIRDSGVPDRFSGSGSGTDFTLKISRVEAEDVGVYYCMQRLQIPLTFGGGTKVEIK	–	–	–	–	–	–	> 100 fold	~5 fold	> 3000 nM	39.4 nM	~2000 nM	971 nM	~10 fold	~10 fold
16E17 (antibody, V domains shown, From mouse immunisation; only variable domains given) VH: QIQLVQSGPELKKPGETVKISCKASGYAFTTYGMSWVKQAPGKGLKWMGWINTYSGVPKYADDFKGRFAFSLETSASTAYLHINNLKNEDTATYFCGRHYYGSSYFDYWGQGTTLTVSS VL: not shown	no binding	2.8 fold	1.45 fold	1.58 fold	5.1%	103%	–	–	–	–	–	–	–	–
19L04 (antibody, IgG4, V domains shown, From mouse immunisation; only variable domains given) VH: QIQLVQSGPELKKPGETVKISCKASGYTFTTYGMSWVKQAPGKGLKWMGWINTYSGVPTYADDFKGRFAFSLETSASTAYLQINNLKIEDTATYFCARHYYGSHYFDYWGQGTTLTVSS VL: DIMMTQSPSSLAMSVGQKVTLRCKSSQSLLNSSNQKNYLAWYQQKPGQSPKLLVYFASTRESGVPVRFIGSGSGTDFTLTISSMQAEDLADYFCQQHYFSPLTFGAGTKLELK	no binding	1.42 fold	1.44 fold	1.26 fold	44.3%	104%	–	–	–	–	–	–	–	–
19N05 (antibody, V domains shown, From mouse immunisation; only variable domains given) VH: QIQLVQSGPELKKPGETVKISCKASGYTFTTYGMSWVKQAPGKGLKWMGWINTYSGVPTFADDFKGRFAFSLETSASTAYLQINNLKNEDTATFFCARNYYGNHYFDYWGQGTTLTVSS VL: DVQITQSPSYLAASPGETISINCRASNNINKYLAWYQEKPGKTNKLLIYSGSTLQSGIPSRFSGSGSGTDFTLTISSLEPEDFAMYHCQQHNYYPLTFGAGTKLELK	no binding	1.39 fold	1.43 fold	1.34 fold	69.4%	125%	–	–	–	–	–	–	–	–
